Source: paper PMC10791742 (2024)

Columns and labels:
[1] = molecular target: T1, myotoxin II from Bothrops asper (Bothrops asper, UniProt P24605 17-137, biotin (EZ-Link NHS-PEG4-Biotin, molar ratio 1:1.5 toxin:biotin)); assay: BLI
[2] = molecular target: T1, myotoxin II from Bothrops asper; assay: BLI; remark: listed apart in the source

T1 sequence (P24605 17-137): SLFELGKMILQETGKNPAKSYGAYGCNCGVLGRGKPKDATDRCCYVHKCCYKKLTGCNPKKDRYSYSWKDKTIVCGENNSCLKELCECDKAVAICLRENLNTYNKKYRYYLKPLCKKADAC

B1: G08(LALA + YTE) human IgG1 (antibody, V domains shown)
VH: EVQLVESGGGVVQPGRSLRLSCAASGFTFSSYGMHWVRQAPGKGLEWVAVISYDGSNKYYADSVKGRFTISRDNSKNTLYLQMNSLRAEDTAVYYCARTNYDSGDAFDIWGQGTLVTVSS
VL: NFMLTQPHSVSESPGKTVTISCTRSSGSIASNYVQWYQQRPGSSPTTVIYEDNQRPSGVPDRFSGSIDSSSNSASLTISGLKTEDEADYYCQSYDSSTVVFGGGTKLTVL
koff [1]: 0.00283 s⁻¹ | Kd [2]: 9.41 nM
